In this assay the target is 5*MYC-HSD17B13 (Mouse) (UniProt Q8VCR2). As to the kind of experiment: co-immunoprecipitation (IP: MYC) and Western blotting, band intensity. The settings on record: HEK293T cells transfected with EGFP-Rab2A plasmids and MYC-HSD17B13; parent: 3.3.
Chain of UniProt Q8VCR2 (Q8VCR2 whole entry): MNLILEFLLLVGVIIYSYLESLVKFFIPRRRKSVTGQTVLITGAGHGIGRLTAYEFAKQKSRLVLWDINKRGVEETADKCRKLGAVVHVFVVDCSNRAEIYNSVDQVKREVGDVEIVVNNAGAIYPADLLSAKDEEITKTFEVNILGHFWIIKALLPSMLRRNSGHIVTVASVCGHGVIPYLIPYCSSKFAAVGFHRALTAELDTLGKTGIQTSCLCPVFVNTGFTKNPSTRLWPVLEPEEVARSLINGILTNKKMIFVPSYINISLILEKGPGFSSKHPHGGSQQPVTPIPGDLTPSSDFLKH

Take “Rab2A, wild type, expressed from a plasmid in HEK293T cells (tag not told) (from UniProt P53994) Q32...E42-A...A”: the response turned out to be 0.9.
